This is an account of results in patent EP0717753B1.

Test [1] concerns the target p185 HER2/neu (UniProt P04626). In words: radioimmunoassay on fixed SKBR3 cells, 125I anti-mouse Ig secondary antibody.
The target in test [2] is Epidermal Growth Factor Receptor (UniProt P00533). The test can be described thus: cell-based or functional assay.
Test [3] has the same target. The test can be described thus: radioimmunoassay on fixed A431 cells, 125I anti-mouse Ig secondary antibody.
Test [4] addresses p185 HER2/neu (UniProt P04626). In words: radioimmunoassay on fixed SKBR3 cells (non-target cell line for Mint5), 125I anti-mouse Ig secondary antibody.
Test [5] deals with Epidermal Growth Factor Receptor (UniProt P00533). In words: radioimmunoassay on fixed A431 cells (non-target cell line for MGR6), 125I anti-mouse Ig secondary antibody.

The substance “immunoconjugate MGR6 - Piramidatine (antibody)” displayed a % binding with p185 HER2/neu [1] of 105%.

With “immunoconjugate Mint5 - Piramidatine (antibody)”, in test [2], the INHIBITION OF CELL PROLIFERATION: IC50 CELL LINE A431, protocol A was found to be 1.3e-12; the INHIBITION OF CELL PROLIFERATION: IC50 CELL LINE A431, protocol B was determined as 4.2e-11; the INHIBITION OF PROTEIN … IN CELL SYSTEM: IC50 CELL LINE A431, protocol A was determined as 1e-11; the INHIBITION OF PROTEIN … IN CELL SYSTEM: IC50 CELL LINE A431, protocol B was found to be 1e-11. Also, in test [3], the % binding amounted to 110%. Moreover, the % binding with p185 HER2/neu [4] amounted to 18.8%.

Regarding “immunoconjugate MGR6 - Ocymoidine (antibody)”, the % binding was 87.5% with p185 HER2/neu [1] and 15.3% in test [5].

In test [2], “immunoconjugate Mint5 - Ocymoidine (antibody)” showed an INHIBITION OF CELL PROLIFERATION: IC50 CELL LINE A431, protocol A of 1.9e-12; an INHIBITION OF CELL PROLIFERATION: IC50 CELL LINE A431, protocol B of 3.2e-11; an INHIBITION OF PROTEIN … IN CELL SYSTEM: IC50 CELL LINE A431, protocol A of 1e-11; an INHIBITION OF PROTEIN … IN CELL SYSTEM: IC50 CELL LINE A431, protocol B of 1e-11. Besides, the % binding in test [3] is 78.5%. This substance came in with a % binding with p185 HER2/neu [4] of 9.38%.
